We go through five molecules from US20210032299A1 (Eli Lilly, published 2021).

Starred links: 1 amine or outer side, 2 acyl side, 3 side chain; linkers in the order of their positions; H or OH if unused. Non-standard residues stand in square brackets, D forms with d. Groups on a side chain read outwards from the residue. No end group written: not given here. *: point of attachment. C20 diacid = O=C(O)CCCCCCCCCCCCCCCCCCC(=O)*; C18 diacid = O=C(O)CCCCCCCCCCCCCCCCC(=O)*; αMePhe(2-F) = C[C@](N)(Cc1ccccc1F)C(=O)O; γGlu = O=C(O)[C@H](CCC(=O)[*:2])N[*:1]; AEEA = NCCOCCOCC(=O)O; Aib = CC(C)(N)C(=O)O

T1: human glucose-dependent insulinotropic polypeptide (GIP) receptor (human, UniProt P48546 22-466)
T1 construct: whole, on cells; Assayed as crude membranes of stably transfected CHO cells; also called hGIPR; human GIP receptor
T1 sequence (looked up): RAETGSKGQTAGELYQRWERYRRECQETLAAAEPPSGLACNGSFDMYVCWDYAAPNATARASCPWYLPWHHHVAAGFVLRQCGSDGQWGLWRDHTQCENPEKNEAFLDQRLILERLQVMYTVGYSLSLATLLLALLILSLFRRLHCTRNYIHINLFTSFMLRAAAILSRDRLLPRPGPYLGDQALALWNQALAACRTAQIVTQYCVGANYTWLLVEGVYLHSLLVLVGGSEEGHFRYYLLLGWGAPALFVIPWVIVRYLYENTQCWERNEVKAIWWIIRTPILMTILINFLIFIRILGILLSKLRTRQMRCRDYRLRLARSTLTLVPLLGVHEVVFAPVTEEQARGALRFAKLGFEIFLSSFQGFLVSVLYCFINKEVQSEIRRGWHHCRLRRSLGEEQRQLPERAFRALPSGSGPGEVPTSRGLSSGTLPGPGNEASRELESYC

B1: Example 36 (peptide)
peptide: Y[Aib]EGT[αMePhe(2-F)]ISDYSIALDKK([AEEA-AEEA-γGlu-C20 diacid])HQ[Aib]DFVEYLLETGPSSGAPPPS-NH2
modifications: N-terminus assumed
SMILES: CC[C@H](C)[C@H](NC(=O)[C@H](CO)NC(=O)[C@H](Cc1ccc(O)cc1)NC(=O)[C@H](CC(=O)O)NC(=O)[C@H](CO)NC(=O)[C@@H](NC(=O)[C@](C)(Cc1ccccc1F)NC(=O)[C@@H](NC(=O)CNC(=O)[C@H](CCC(=O)O)NC(=O)C(C)(C)NC(=O)[C@@H](N)Cc1ccc(O)cc1)[C@@H](C)O)[C@@H](C)CC)C(=O)N[C@@H](C)C(=O)N[C@@H](CC(C)C)C(=O)N[C@@H](CC(=O)O)C(=O)N[C@@H](CCCCN)C(=O)N[C@@H](CCCCNC(=O)COCCOCCNC(=O)COCCOCCNC(=O)CC[C@H](NC(=O)CCCCCCCCCCCCCCCCCCC(=O)O)C(=O)O)C(=O)N[C@@H](Cc1c[nH]cn1)C(=O)N[C@@H](CCC(N)=O)C(=O)NC(C)(C)C(=O)N[C@@H](CC(=O)O)C(=O)N[C@@H](Cc1ccccc1)C(=O)N[C@H](C(=O)N[C@@H](CCC(=O)O)C(=O)N[C@@H](Cc1ccc(O)cc1)C(=O)N[C@@H](CC(C)C)C(=O)N[C@@H](CC(C)C)C(=O)N[C@@H](CCC(=O)O)C(=O)N[C@H](C(=O)NCC(=O)N1CCC[C@H]1C(=O)N[C@@H](CO)C(=O)N[C@@H](CO)C(=O)NCC(=O)N[C@@H](C)C(=O)N1CCC[C@H]1C(=O)N1CCC[C@H]1C(=O)N1CCC[C@H]1C(=O)N[C@@H](CO)C(N)=O)[C@@H](C)O)C(C)C
B2: Example 40 (peptide)
peptide: Y[Aib]EGT[αMePhe(2-F)]ISDYSIALDKK([AEEA-AEEA-γGlu-C20 diacid])HQ[Aib]DFVEWLLETGPSSGAPPPS-NH2
modifications: N-terminus assumed
SMILES: CC[C@H](C)[C@H](NC(=O)[C@H](CO)NC(=O)[C@H](Cc1ccc(O)cc1)NC(=O)[C@H](CC(=O)O)NC(=O)[C@H](CO)NC(=O)[C@@H](NC(=O)[C@](C)(Cc1ccccc1F)NC(=O)[C@@H](NC(=O)CNC(=O)[C@H](CCC(=O)O)NC(=O)C(C)(C)NC(=O)[C@@H](N)Cc1ccc(O)cc1)[C@@H](C)O)[C@@H](C)CC)C(=O)N[C@@H](C)C(=O)N[C@@H](CC(C)C)C(=O)N[C@@H](CC(=O)O)C(=O)N[C@@H](CCCCN)C(=O)N[C@@H](CCCCNC(=O)COCCOCCNC(=O)COCCOCCNC(=O)CC[C@H](NC(=O)CCCCCCCCCCCCCCCCCCC(=O)O)C(=O)O)C(=O)N[C@@H](Cc1c[nH]cn1)C(=O)N[C@@H](CCC(N)=O)C(=O)NC(C)(C)C(=O)N[C@@H](CC(=O)O)C(=O)N[C@@H](Cc1ccccc1)C(=O)N[C@H](C(=O)N[C@@H](CCC(=O)O)C(=O)N[C@@H](Cc1c[nH]c2ccccc12)C(=O)N[C@@H](CC(C)C)C(=O)N[C@@H](CC(C)C)C(=O)N[C@@H](CCC(=O)O)C(=O)N[C@H](C(=O)NCC(=O)N1CCC[C@H]1C(=O)N[C@@H](CO)C(=O)N[C@@H](CO)C(=O)NCC(=O)N[C@@H](C)C(=O)N1CCC[C@H]1C(=O)N1CCC[C@H]1C(=O)N1CCC[C@H]1C(=O)N[C@@H](CO)C(N)=O)[C@@H](C)O)C(C)C
B3: Example 37 (peptide)
peptide: Y[Aib]EGT[αMePhe(2-F)]ISDYSIALDKK([AEEA-AEEA-γGlu-C20 diacid])HQ[Aib]DFVEYLLEGGPSSGAPPPS-NH2
modifications: N-terminus assumed
SMILES: CC[C@H](C)[C@H](NC(=O)[C@H](CO)NC(=O)[C@H](Cc1ccc(O)cc1)NC(=O)[C@H](CC(=O)O)NC(=O)[C@H](CO)NC(=O)[C@@H](NC(=O)[C@](C)(Cc1ccccc1F)NC(=O)[C@@H](NC(=O)CNC(=O)[C@H](CCC(=O)O)NC(=O)C(C)(C)NC(=O)[C@@H](N)Cc1ccc(O)cc1)[C@@H](C)O)[C@@H](C)CC)C(=O)N[C@@H](C)C(=O)N[C@@H](CC(C)C)C(=O)N[C@@H](CC(=O)O)C(=O)N[C@@H](CCCCN)C(=O)N[C@@H](CCCCNC(=O)COCCOCCNC(=O)COCCOCCNC(=O)CC[C@H](NC(=O)CCCCCCCCCCCCCCCCCCC(=O)O)C(=O)O)C(=O)N[C@@H](Cc1c[nH]cn1)C(=O)N[C@@H](CCC(N)=O)C(=O)NC(C)(C)C(=O)N[C@@H](CC(=O)O)C(=O)N[C@@H](Cc1ccccc1)C(=O)N[C@H](C(=O)N[C@@H](CCC(=O)O)C(=O)N[C@@H](Cc1ccc(O)cc1)C(=O)N[C@@H](CC(C)C)C(=O)N[C@@H](CC(C)C)C(=O)N[C@@H](CCC(=O)O)C(=O)NCC(=O)NCC(=O)N1CCC[C@H]1C(=O)N[C@@H](CO)C(=O)N[C@@H](CO)C(=O)NCC(=O)N[C@@H](C)C(=O)N1CCC[C@H]1C(=O)N1CCC[C@H]1C(=O)N1CCC[C@H]1C(=O)N[C@@H](CO)C(N)=O)C(C)C
B4: Example 30 (peptide)
peptide: Ac-[dY]AEGT[αMePhe(2-F)]ISDYSIALDKK([AEEA-AEEA-γGlu-C18 diacid])HQ[Aib]EFVNYLLAGGPSSGAPPPS-NH2
SMILES: CC[C@H](C)[C@H](NC(=O)[C@H](CO)NC(=O)[C@H](Cc1ccc(O)cc1)NC(=O)[C@H](CC(=O)O)NC(=O)[C@H](CO)NC(=O)[C@@H](NC(=O)[C@](C)(Cc1ccccc1F)NC(=O)[C@@H](NC(=O)CNC(=O)[C@H](CCC(=O)O)NC(=O)[C@H](C)NC(=O)[C@@H](Cc1ccc(O)cc1)NC(C)=O)[C@@H](C)O)[C@@H](C)CC)C(=O)N[C@@H](C)C(=O)N[C@@H](CC(C)C)C(=O)N[C@@H](CC(=O)O)C(=O)N[C@@H](CCCCN)C(=O)N[C@@H](CCCCNC(=O)COCCOCCNC(=O)COCCOCCNC(=O)CC[C@H](NC(=O)CCCCCCCCCCCCCCCCC(=O)O)C(=O)O)C(=O)N[C@@H](Cc1c[nH]cn1)C(=O)N[C@@H](CCC(N)=O)C(=O)NC(C)(C)C(=O)N[C@@H](CCC(=O)O)C(=O)N[C@@H](Cc1ccccc1)C(=O)N[C@H](C(=O)N[C@@H](CC(N)=O)C(=O)N[C@@H](Cc1ccc(O)cc1)C(=O)N[C@@H](CC(C)C)C(=O)N[C@@H](CC(C)C)C(=O)N[C@@H](C)C(=O)NCC(=O)NCC(=O)N1CCC[C@H]1C(=O)N[C@@H](CO)C(=O)N[C@@H](CO)C(=O)NCC(=O)N[C@@H](C)C(=O)N1CCC[C@H]1C(=O)N1CCC[C@H]1C(=O)N1CCC[C@H]1C(=O)N[C@@H](CO)C(N)=O)C(C)C
B5: Example 33 (peptide)
peptide: Ac-[dY]AEGT[αMePhe(2-F)]ISDYSIALDKK([AEEA-AEEA-γGlu-C20 diacid])HQ[Aib]EFVNYLLEGGPSSGAPPPS-NH2
SMILES: CC[C@H](C)[C@H](NC(=O)[C@H](CO)NC(=O)[C@H](Cc1ccc(O)cc1)NC(=O)[C@H](CC(=O)O)NC(=O)[C@H](CO)NC(=O)[C@@H](NC(=O)[C@](C)(Cc1ccccc1F)NC(=O)[C@@H](NC(=O)CNC(=O)[C@H](CCC(=O)O)NC(=O)[C@H](C)NC(=O)[C@@H](Cc1ccc(O)cc1)NC(C)=O)[C@@H](C)O)[C@@H](C)CC)C(=O)N[C@@H](C)C(=O)N[C@@H](CC(C)C)C(=O)N[C@@H](CC(=O)O)C(=O)N[C@@H](CCCCN)C(=O)N[C@@H](CCCCNC(=O)COCCOCCNC(=O)COCCOCCNC(=O)CC[C@H](NC(=O)CCCCCCCCCCCCCCCCCCC(=O)O)C(=O)O)C(=O)N[C@@H](Cc1c[nH]cn1)C(=O)N[C@@H](CCC(N)=O)C(=O)NC(C)(C)C(=O)N[C@@H](CCC(=O)O)C(=O)N[C@@H](Cc1ccccc1)C(=O)N[C@H](C(=O)N[C@@H](CC(N)=O)C(=O)N[C@@H](Cc1ccc(O)cc1)C(=O)N[C@@H](CC(C)C)C(=O)N[C@@H](CC(C)C)C(=O)N[C@@H](CCC(=O)O)C(=O)NCC(=O)NCC(=O)N1CCC[C@H]1C(=O)N[C@@H](CO)C(=O)N[C@@H](CO)C(=O)NCC(=O)N[C@@H](C)C(=O)N1CCC[C@H]1C(=O)N1CCC[C@H]1C(=O)N1CCC[C@H]1C(=O)N[C@@H](CO)C(N)=O)C(C)C

One test has as its target T1, human glucose-dependent insulinotropic …. Description: SPA, displacement of [125I]-GIP from hGIPR membranes, 0.1% bacitracin.
Molecule B1 showed a Ki of 0.0683 nM.
Still for that read-out and setting: under B2 stands 0.0594 nM; under B3, 0.026 nM; under B4, 0.037 nM.
The molecule B5 yielded an inhibition constant Ki of 0.0369 nM.

Another test has as its target T2, human GLP-1 receptor (human, UniProt P43220 24-463).
T2 construct: whole, on cells; Assayed as crude membranes of stably transfected HEK293 cells; also called hGLP1R; hGLP-1R
Description: SPA, displacement of [125I]-GLP-1 from hGLP-1R membranes, 0.1% bacitracin. In a few lines: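 Binding buffer: 25 mM HEPES pH 7.4, 2.5 mM CaCl₂, 1 mM MgCl₂, 0.1% bacitracin, 0.003% Tween-20, protease inhibitors without EDTA. Four-parameter nonlinear regression; Kᵢ given as geometric mean ± SEM, n = independent replicates run on different days.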
Background: In a radioligand displacement assay an active substance lowers the binding of a labelled ligand.
B1 returned an inhibitory constant (Ki) of 393 nM.
On the same count and under the same terms, the same measure for B2: 302 nM; for B3: 83.9 nM; for B4: 26.5 nM.
For the molecule B5, the inhibition constant Ki was determined as 31.2 nM.

The next test deals with T3, human glucagon receptor (human, UniProt P47871 26-477).
T3 construct: whole, on cells; Assayed as crude membranes of stably transfected HEK293 cells; also called hGcgR; GcgR
T3 sequence (P47871 26-477): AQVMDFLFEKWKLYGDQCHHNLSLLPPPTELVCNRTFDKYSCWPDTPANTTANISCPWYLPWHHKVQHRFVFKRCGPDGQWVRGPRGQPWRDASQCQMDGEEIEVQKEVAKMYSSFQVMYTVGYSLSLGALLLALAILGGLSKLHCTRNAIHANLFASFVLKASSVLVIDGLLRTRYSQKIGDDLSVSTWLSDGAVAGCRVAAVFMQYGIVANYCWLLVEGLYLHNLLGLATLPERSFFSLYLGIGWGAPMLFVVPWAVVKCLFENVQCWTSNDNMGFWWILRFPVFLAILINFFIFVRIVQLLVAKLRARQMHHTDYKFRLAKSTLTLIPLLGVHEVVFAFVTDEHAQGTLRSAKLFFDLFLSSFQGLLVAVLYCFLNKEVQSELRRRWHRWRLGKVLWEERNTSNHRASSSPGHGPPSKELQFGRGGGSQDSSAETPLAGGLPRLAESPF
Description: SPA, displacement of [125I]-Gcg from hGcgR membranes, 0.1% bacitracin. In a few lines: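 Binding buffer: 25 mM HEPES pH 7.4, 2.5 mM CaCl₂, 1 mM MgCl₂, 0.003% Tween-20, protease inhibitors without EDTA. Counted by scintillation after 12 h incubation/settling at room temperature. Four-parameter nonlinear fit; Kᵢ given as geometric mean ± SEM of independent replicates run on different days.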
The molecule B1 displayed a Ki of 201 nM.
The same measure, in the same setting: under B2 stands 50.9 nM; under B3, 51.4 nM; under B4, 407 nM.
B5 returned a Ki of 63.5 nM.

The term Ki denotes a dissociation constant, usually derived from enzyme kinetics or from competition with a known ligand. Higher therefore signals a looser hold on the target.
